This note sets out measurements from US6472171.

The assay has as its target human α2(I) procollagen (human) (UniProt P08123). In words: cell-based or functional assay.

human α2(I) procollagen (human), sequence (P08123 23-1366 limits assumed): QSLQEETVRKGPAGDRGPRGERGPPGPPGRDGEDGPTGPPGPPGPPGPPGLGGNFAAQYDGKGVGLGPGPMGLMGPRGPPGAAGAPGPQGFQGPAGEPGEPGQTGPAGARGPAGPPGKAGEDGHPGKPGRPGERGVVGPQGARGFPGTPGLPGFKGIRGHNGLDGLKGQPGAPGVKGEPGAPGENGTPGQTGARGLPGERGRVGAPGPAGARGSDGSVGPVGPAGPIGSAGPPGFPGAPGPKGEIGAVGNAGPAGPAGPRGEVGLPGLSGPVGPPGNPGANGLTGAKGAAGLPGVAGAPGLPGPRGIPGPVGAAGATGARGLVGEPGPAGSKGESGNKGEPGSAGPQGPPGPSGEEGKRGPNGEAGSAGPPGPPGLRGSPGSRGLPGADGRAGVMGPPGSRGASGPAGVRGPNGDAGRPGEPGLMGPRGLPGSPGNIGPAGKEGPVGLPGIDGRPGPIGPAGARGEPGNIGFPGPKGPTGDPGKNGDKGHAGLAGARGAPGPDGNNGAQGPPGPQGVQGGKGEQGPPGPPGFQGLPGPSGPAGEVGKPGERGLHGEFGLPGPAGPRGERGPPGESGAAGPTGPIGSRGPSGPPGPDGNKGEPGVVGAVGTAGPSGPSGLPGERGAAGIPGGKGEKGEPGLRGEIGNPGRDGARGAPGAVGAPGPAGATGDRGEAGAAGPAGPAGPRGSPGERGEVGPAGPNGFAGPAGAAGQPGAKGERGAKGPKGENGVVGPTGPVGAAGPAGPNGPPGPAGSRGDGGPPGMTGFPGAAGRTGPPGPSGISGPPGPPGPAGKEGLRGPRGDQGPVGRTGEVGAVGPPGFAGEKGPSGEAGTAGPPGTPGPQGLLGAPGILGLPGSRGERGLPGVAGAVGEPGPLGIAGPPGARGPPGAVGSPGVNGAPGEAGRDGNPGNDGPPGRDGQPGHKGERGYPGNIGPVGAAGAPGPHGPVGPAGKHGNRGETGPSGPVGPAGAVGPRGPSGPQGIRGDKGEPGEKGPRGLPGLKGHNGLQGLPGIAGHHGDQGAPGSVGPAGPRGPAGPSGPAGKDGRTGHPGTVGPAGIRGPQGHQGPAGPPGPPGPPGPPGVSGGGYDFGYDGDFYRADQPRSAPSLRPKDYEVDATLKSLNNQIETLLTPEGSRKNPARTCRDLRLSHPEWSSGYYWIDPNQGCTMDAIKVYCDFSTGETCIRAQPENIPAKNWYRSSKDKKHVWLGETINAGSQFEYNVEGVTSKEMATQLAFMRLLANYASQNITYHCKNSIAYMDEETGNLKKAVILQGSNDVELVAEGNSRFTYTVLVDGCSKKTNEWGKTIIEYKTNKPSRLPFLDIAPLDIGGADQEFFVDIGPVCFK

On to “human α1(I) procollagen (from UniProt P02452 23-1464)”, for which the resistance to pepsin digestion at increasing temperatures (SDS-PAGE) worked out at 38 ° C.
